We go through six molecules from patent publication US20210292414A1 (H LUNDBECK A S, published 2021).

Test in all cases: BLI (Octet384RED)
The target in experiment [1] is T1, Sortilin SORTECDBAP_hB12390 (human/tetraodon chimera).
T1 construct: Shuffle construct: chimeric human/tetraodon Sortilin ECD with BAP tag
T1 chain: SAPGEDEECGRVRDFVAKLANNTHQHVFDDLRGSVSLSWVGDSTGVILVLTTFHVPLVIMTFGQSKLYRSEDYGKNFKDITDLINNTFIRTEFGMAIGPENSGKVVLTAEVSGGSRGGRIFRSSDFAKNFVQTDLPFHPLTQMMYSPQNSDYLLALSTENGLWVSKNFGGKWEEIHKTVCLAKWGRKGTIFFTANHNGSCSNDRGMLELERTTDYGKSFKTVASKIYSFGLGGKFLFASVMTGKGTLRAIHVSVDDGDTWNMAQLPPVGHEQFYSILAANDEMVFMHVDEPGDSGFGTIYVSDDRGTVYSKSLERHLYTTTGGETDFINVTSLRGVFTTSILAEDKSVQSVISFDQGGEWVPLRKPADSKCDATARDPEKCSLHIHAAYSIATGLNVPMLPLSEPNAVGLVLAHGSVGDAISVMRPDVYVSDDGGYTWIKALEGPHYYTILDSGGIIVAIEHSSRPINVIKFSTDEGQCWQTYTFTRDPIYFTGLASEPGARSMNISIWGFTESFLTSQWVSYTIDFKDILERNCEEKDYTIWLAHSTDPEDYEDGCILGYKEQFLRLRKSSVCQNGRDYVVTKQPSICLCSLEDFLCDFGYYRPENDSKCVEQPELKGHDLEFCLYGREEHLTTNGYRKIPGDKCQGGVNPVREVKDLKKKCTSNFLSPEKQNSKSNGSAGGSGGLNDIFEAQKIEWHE

In experiment [2] the target is T2, Sortilin SORTECDBAP_hB01-05 (human/tetraodon chimera).
T2 construct: Shuffle construct: chimeric human/tetraodon Sortilin ECD with BAP tag
T2 chain: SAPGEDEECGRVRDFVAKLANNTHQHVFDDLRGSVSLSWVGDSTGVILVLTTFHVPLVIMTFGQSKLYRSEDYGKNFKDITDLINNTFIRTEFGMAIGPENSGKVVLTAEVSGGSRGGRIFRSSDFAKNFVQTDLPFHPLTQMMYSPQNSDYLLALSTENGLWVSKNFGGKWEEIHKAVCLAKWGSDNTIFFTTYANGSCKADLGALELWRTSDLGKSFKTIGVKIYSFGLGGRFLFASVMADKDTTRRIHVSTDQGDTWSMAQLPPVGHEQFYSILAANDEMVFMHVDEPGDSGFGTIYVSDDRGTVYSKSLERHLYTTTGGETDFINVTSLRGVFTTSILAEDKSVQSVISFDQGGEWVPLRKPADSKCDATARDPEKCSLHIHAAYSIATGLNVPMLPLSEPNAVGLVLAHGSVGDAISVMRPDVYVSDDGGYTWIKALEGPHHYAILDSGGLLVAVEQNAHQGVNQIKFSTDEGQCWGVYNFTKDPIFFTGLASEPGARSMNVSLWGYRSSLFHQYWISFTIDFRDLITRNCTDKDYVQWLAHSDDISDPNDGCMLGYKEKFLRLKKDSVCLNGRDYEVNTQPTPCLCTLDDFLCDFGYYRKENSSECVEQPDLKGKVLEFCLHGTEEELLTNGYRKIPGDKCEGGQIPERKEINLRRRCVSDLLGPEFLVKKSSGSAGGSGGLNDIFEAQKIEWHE

Experiment [3] deals with T3, Sortilin SORTECDBAP_tetra (tetraodon).
T3 construct: Fully tetraodon Sortilin ECD with BAP tag; also called tetraodon; tetraodon Sortilin
T3 chain: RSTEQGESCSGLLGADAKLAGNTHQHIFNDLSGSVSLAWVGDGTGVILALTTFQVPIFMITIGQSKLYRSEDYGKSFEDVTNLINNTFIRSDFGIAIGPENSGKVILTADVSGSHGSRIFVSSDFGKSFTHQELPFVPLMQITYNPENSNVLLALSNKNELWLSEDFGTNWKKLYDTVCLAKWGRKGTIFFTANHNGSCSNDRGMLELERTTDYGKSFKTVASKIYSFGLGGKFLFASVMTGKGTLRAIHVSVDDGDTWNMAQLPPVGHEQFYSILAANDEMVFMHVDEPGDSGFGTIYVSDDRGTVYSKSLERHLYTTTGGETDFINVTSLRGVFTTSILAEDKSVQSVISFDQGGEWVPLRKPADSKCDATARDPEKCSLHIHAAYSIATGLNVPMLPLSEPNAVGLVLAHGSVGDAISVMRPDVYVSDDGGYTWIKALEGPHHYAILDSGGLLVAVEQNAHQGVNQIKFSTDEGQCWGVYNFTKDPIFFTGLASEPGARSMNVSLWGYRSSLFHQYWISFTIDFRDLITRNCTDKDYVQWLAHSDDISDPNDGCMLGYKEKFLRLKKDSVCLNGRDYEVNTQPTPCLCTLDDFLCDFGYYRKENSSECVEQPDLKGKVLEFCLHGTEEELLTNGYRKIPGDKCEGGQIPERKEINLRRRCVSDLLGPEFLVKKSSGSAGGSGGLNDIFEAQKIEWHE

The target of a further experiment is T4, hRim.
T4 chimeric human/tetraodon Sortilin extracellular region, BAP tag: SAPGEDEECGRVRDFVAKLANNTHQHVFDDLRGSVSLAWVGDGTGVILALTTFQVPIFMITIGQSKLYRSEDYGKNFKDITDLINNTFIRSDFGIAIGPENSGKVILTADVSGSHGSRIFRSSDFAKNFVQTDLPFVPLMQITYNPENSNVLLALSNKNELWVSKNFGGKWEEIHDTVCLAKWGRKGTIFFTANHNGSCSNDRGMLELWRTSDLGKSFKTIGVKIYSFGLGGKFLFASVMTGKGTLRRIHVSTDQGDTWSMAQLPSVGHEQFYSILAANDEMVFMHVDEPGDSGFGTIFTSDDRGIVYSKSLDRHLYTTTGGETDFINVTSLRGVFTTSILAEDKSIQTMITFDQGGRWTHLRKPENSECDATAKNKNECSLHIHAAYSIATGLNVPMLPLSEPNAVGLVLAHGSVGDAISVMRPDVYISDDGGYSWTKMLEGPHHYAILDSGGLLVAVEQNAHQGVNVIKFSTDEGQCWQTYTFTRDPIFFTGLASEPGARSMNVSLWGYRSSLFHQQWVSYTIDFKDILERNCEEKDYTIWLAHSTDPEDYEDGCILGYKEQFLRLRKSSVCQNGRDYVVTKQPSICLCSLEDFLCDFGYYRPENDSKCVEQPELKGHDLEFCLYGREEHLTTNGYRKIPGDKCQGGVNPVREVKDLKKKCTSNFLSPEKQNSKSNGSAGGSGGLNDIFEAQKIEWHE

B1: Antibody 6003-900 (antibody, human IgG1, V domains shown)
VH: EVQLVESGGGLVKPGGSLRLSCAASGFTFSSYSMNWVRQAPGKGLEWVSSISSSSSYIYYADSVKGRFTISRDNAKNSLYLQMNSLRAEDTAVYYCARRGSGSYDAFDIWGQGTMVTVSS
VL: EIVLTQSPDFQSVTPKEKVTITCRASQSIGYSLHWYQQKPDQSPKLLIKYASQSFSGVPSRFSGSGSGTDFTLTINSLEAEDAAAYYCHQSSSLPLTFGGGTKVEIK
notes: also called antibody 900; Sortilin human antibody 900
Broadly, the EC50 is the concentration needed to bring the measured effect to its halfway point. Regarding B1, the figures for the EC50 (in experiment [1]; with hRim) were 1.06 ng/mL and 1.26 ng/mL, respectively. Moreover, the binding result in experiment [2] and in experiment [3] was “no binding” in each case.

B2: IgG1-6003-910 (antibody, V domains shown)
VH: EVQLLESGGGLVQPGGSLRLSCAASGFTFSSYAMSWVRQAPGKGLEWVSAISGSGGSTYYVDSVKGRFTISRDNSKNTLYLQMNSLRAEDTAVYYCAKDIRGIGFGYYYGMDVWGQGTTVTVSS
VL: EIVLTQSPATLSLSPGERATLSCRASQSVSSYLVWYQQKPGQAPRLLIYDASNRATGIPARFSGSGSGTDFTLTISSLEPEDFAVYYCQQRSNWPPTFGQGTRLEIK
notes: also called Antibody 6003-910
Turning to B2, the EC50 in experiment [1] was 1.84 ng/mL; with hRim, 2.59 ng/mL. For the same molecule, the binding result in experiment [2] and in experiment [3] was “no binding” throughout.

B3: IgG1-6003-972 (antibody, V domains shown)
VH: QVQLVESGGGVVQPGRSLRLSCAASGFTFSDYAMHWVRRAPGKGLEWVVVISYDGSNKYYADSVKGRFTISRDNSKNTLYLQMNSLRAEDTAVYYCARDPSGGWYFDLWGRGTLVTVSS
VL: EIVLTQSPATLSLSPGERATLSCRASQSVSSYLAWYQQKPGQAPRLLIYDASNRATGIPARFSGSGSGTDFTLTISSLEPEDFALYYCQQRSHWPRTFGQGTKVEIK
notes: also called Antibody 6003-972
Consider B3, for which the 50% effective concentration (EC50) in experiment [1] amounted to 2.36 ng/mL; in the experiment with hRim, 3.08 ng/mL. For the same molecule, the binding result in experiment [2] and in experiment [3] was “no binding” in each case.

B4: Antibody 6003-799 (antibody, human IgG1, V domains shown)
VH: QVQLVESGGGVVQPGRSLRLSCAASGFTFSSYGMHWVRQAPGKGLEWVTVISYDGSNKYYADSVKGRFTISRDNSKNTLYLQMNSLRAEDTAVYYCAKLTGDAFDIWGQGTMVTVSS
VL: EIVLTQSPATLSLSPGERATLSCRASQSVSSYLVWYQQKPGQAPRLLIYHASNRATGIPARFSGSGSGTDFTLTISSLEPEDFAVYYCQQRSNWPRITFGQGTRLEIK
For B4, the EC50 in experiment [1] was found to be 3.36 ng/mL; in the experiment with hRim it was 5.02 ng/mL. Also, the binding result in experiment [2] and in experiment [3] was “no binding” each time.

B5: Antibody 6003-822 (antibody, human IgG1, V domains shown)
VH: EVQLLESGGGLVQPGESLTLSCAASGFTLSSYAMSWVRQAPGKGLEWVSSISGRLGTTYYAASVKGRFTISRDNSKNTLYLQMNSLRAEDTAIYSCAKAPSDAFDIWGQGTMVTVSS
VL: EIVLTQSPATLSLSPGERATLSCRASQSVSSYLAWYQQKPGQAPRLLIYDASNRATGIPARFSGSGSGTDFTLTISSLEPEDFAVYYCQQRSNWPIFTFGPGTKVDIK
Turning to B5, the EC50 turned out to be 1.89 ng/mL in experiment [1] and 2.31 ng/mL with hRim. For the same molecule, the binding result in experiment [2] and in experiment [3] was “no binding” each time.

B6: Antibody 6003-886 (antibody, human IgG1, V domains shown)
VH: QVQLVQSGAEVKKPGASVKVSCKASGYTFTKYGISWVRQAPGQGLEWMGWISAYNGNTNYAQKLQDRVTMTTDTFTSTAYMELRSLRSDDTAVYFCARDGPLTGDFTFYGMDVWGQGTTVTVSS
VL: EIVLTQSPATLSLSPGERATLSCRASQSVSSYLAWYQQKPGQAPRLLIYDASNRATGIPARFSGSGSGTDFTLTISSLEPEDFAVYYCQQRSNWPPFTFGPGTKVDIK
On to B6, for which the EC50 in experiment [1] turned out to be 3.36 ng/mL; in the experiment with hRim, 4.42 ng/mL. Further, the binding result in experiment [2] and in experiment [3] was “no binding” throughout.
